Experiment [1] has as its target T1, rat Y2 receptor (rat), Q9ERC0.
T1 chain: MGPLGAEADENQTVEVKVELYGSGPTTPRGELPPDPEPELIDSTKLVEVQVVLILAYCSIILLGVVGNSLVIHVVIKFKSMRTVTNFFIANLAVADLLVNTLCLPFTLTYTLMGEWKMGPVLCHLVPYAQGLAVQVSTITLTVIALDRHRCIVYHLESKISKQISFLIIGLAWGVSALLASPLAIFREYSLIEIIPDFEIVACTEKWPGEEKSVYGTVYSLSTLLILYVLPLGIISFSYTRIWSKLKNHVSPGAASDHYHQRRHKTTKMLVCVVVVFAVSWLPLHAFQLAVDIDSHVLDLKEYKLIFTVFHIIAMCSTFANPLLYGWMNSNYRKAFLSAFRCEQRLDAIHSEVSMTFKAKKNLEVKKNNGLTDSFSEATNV
Briefly: 125I-PYY displacement, COS-7 membranes. The note with it: remark: other sources report otherwise.

The target in experiment [2] is T2, rat Y4 receptor (rat), Q63447.
T2 chain: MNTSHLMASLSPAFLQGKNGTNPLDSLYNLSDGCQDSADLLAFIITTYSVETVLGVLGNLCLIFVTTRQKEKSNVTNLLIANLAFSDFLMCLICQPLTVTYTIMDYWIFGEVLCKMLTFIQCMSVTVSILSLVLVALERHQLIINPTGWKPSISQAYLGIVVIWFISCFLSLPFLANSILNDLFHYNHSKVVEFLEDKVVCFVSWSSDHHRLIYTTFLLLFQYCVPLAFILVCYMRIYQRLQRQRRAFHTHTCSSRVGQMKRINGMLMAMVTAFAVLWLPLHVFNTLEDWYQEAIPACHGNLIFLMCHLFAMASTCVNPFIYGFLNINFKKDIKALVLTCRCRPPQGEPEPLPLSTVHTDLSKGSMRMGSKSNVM
The experiment is described as follows: 125I-PYY displacement, COS-7 membranes. The note with it: remark: other sources report otherwise.

Experiment [3] has as its target T3, rat hypothalamic Y5 receptor (rat).
T3 sequence: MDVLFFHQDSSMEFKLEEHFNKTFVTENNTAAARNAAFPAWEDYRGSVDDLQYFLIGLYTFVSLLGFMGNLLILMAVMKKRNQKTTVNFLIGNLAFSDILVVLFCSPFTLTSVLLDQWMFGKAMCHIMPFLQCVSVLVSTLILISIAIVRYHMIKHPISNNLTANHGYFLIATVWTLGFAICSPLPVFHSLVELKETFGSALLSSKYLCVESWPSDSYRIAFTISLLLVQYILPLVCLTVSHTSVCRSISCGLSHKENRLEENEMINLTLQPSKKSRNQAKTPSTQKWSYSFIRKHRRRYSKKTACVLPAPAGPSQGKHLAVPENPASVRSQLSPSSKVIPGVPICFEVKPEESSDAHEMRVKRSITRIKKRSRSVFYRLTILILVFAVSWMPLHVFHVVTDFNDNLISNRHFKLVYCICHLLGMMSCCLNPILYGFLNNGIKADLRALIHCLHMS

Experiment [4] deals with human hippocampal Y5 receptor (human).
Experiment [5] deals with T3, rat hypothalamic Y5 receptor (rat). This is another data set of the same source.

Ends that are not written are not given here. Where only a bound is given, the exact number is not on record here.

Chain of human hippocampal Y5 receptor (human) (chain, as listed by the source): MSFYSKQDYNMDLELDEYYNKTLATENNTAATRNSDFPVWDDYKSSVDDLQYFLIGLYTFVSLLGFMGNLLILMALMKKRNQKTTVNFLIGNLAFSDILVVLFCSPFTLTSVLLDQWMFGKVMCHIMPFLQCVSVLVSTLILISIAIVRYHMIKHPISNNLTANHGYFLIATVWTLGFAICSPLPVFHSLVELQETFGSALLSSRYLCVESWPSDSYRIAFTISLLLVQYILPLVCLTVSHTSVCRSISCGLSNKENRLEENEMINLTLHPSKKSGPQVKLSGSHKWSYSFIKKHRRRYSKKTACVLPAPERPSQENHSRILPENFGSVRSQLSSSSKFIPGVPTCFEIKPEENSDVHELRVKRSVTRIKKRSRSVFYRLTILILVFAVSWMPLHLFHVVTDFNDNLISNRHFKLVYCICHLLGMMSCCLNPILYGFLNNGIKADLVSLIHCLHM

On to HYINLITRQRY (ends and bridges not checked) [porcine NPY26-36, P01304], for which the Ki (as a rule, a measure of affinity in units of concentration, obtained from inhibition or displacement) in experiment [1] is more than 0.83 µM.
Molecule PAEDLARYYSALRHYINLITRQRY (ends and bridges not checked) [porcine NPY13-36, P01304] showed a Ki in experiment [2] of 0.14 µM.
On to APLEPEYPGDNATPEQMAQYAAELRRYINMLTRPRY [bovine PP], for which the inhibition of forskolin-stimulated cAMP accumulation, EC50 in experiment [3] stood at 0.0057 µM; in experiment [4], 0.004 µM.
In the case of APLEPMYPGDYATHEQRAQYETQLRRYINTLTRPRY [rat PP], in experiment [3], the inhibition of forskolin-stimulated cAMP accumulation, EC50 was 0.13 µM.
In experiment [3], FLRF-NH2 [FLRF-amide] showed an inhibition of forskolin-stimulated cAMP accumulation, EC50 of 13 µM. Further, in experiment [5], the maximal suppression of cAMP relative to that produced by human NPY is 42%.

These data come from US20020103123A1.
